Measurements taken from patent US20190216947A1.
pKd: −log10 of the molar value.

Tests used:
[1] = target: Mouse CD47 (mouse) (UniProt Q61735); experiment: SPR
[2] = target: Human CD47 (human) (UniProt Q08722); experiment: SPR
Chain of Human CD47 (human) (Q08722 19-139 limits assumed): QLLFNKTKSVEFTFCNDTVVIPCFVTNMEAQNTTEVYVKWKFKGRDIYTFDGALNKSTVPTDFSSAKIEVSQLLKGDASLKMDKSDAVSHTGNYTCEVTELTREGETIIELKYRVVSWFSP

Chain of Mouse CD47 (mouse) (Q61735 19-140 limits assumed): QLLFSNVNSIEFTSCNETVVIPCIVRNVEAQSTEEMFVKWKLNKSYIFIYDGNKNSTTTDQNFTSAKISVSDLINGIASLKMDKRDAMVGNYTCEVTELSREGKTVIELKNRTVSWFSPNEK

pKd [1]: 8.21 | koff [1]: 0.011 s⁻¹ | kon [1]: 1.8e+06 M⁻¹ s⁻¹ | pKd [2]: 11.27 | koff [2]: 3.7e-05 s⁻¹ | kon [2]: 7e+06 M⁻¹ s⁻¹
Substance: monomeric SIRPα (mSIRPα) (receptor)
